Test results published in PMC5737878 (Nucleic Acids Research, 2017).

What was measured:
GR DBD = GR DBD (UniProt P04150 417-506); experiment: fluorescence polarization
NMR titration = molecular target: the molecule itself; experiment: NMR titration

Row | Binder | binding result (GR DBD) | binding result (NMR titration)
1 | IL1a TRE (FP) (dsDNA) DNA 1: GAAGAAGACTGACTCTCAGGCTTAAGC DNA 2: GCTTAAGCCTGAGAGTCAGTCTTCTTC | binds | –
2 | Glucocorticoid receptor DNA binding domain (GR DBD, residues 417-506), 15N-labelled (domain or fragment, UniProt P04150 417-506, looked up, 15N-labelled) PPKLCLVCSDEASGCHYGVLTCGSCKVFFKRAVEGQHNYLCAGRNDCIIDKIRRKNCPACRYRKCLQAGMNLEARKTKKKIKGIQQATTG | – | binds
3 | MMP13 TRE (FP) (dsDNA) DNA 1: ATAAGTGATGACTCACCATTGCA DNA 2: TGCAATGGTGAGTCATCACTTAT | binds | –
4 | VCAM1 TRE (FP) (dsDNA) DNA 1: TTCCGGCTGACTCATCAAGCG DNA 2: CGCTTGATGAGTCAGCCGGAA | binds | –
